Key:
[1] = tested on: angiogenesis induced by SB-HSA cells; assay: corneal pocket angiogenesis assay with sponges containing SB-HSA cells; type: in vivo; settings: BALB/c mice, sponges with 70,000 SB-HSA cells in cornea; continuous subcutaneous infusion by osmotic pump from day 2; examined one week after treatment; vs PBS-treated control
Description: IL-12 is a cytokine with both immunostimulatory and antiangiogenic effects. In these experiments, sponges containing 70,000 SB-HSA cells were placed into the corneas of BALB/c mice. Two days after placement of the sponges, the mice were randomized to receive either mrIL-12 or phosphate buffered saline. Each was delivered as a continuous subcutaneous infusion by subcutaneously implanted osmotic pumps. One week after treatment, mice were injected with FITC-dextran, euthanized and the corneas examined.
Polyvinyl sponges (Rippey, Eldorado Hills, Calif.) preirradiated with 2000 Gy of gamma irradiation (cesium source) were cut into 4×4×2 mm pieces, and 70,000 SB-HSA cells were introduced into the sponges. BALB/c mice were anesthetized with AVERTIN and a small surgical micropocket was created in the center of the avascular cornea. Sponges were then inserted into the micropocket. Eyes were examined for neovascularization daily using an ophthalmic microscope (Carl Zeiss Inc, Thornwood, N.Y.). […] Phase contrast and fluorescence microscopy were used to visualize the general layout of the cornea and the presence of perfused blood vessels, respectively (Muthukkaruppan, V. and Auerbach, R. Science 1979 205:1416–1418).

[2] = tested on: SB-HSA tumors; assay: treatment of SB-HSA tumor-bearing mice (subcutaneous canine hemangiosarcoma xenograft); type: in vivo; settings: NOD-SCID mice injected s.c. with SB-HSA cells, vs PBS control
Description: For example, IL-12 was also shown, to suppress the growth of canine hemangiosarcoma in vivo in this model. IL-12 is a cytokine with pleotropic effects including suppression of angiogenesis due to in vivo inhibition of endothelial cell growth. This activity is mediated by downstream chemokines such as IP-10 and Mig, which are induced by interferon-γ in response to IL-12. […] Control mice that were injected subcutaneously with SB-HSA cells and received phosphate buffered saline developed tumors at the site of cell inoculation by the second week that progressively enlarged over a 4-week observation period.
Canine hemangiosarcoma xenografts were established in NOD-SCID mice by injection of 5×10^6 SB-HSA cells suspended in 200 μl PBS over the dorsum using a 26 gauge needle and tuberculin syringe. Mice were examined every other day until tumors were detected and measured with calipers. Animals were sacrificed when tumors reached a size of 1 cm^3.
NOD-SCID mice were injected subcutaneously over the dorsum with SB-HSA cells (5×10^6 cells/200 μl). […] Pumps were designed to deliver 6 μl/day (1 μg IL-12/day for four weeks. The mice were examined every other day for tumor development. The two largest perpendicular diameters were measured with calipers.

B1: Interleukin-12 (protein, UniProt P43431 23-215; P43432 23-335, looked up)
Interleukin-12 subunit alpha: RVIPVSGPARCLSQSRNLLKTTDDMVKTAREKLKHYSCTAEDIDHEDITRDQTSTLKTCLPLELHKNESCLATRETSSTTRGSCLPPQKTSLMMTLCLGSIYEDLKMYQTEFQAINAALQNHNHQQIILDKGMLVAIDELMQSLNHNGETLRQKPPVGEADPYRVKMKLCILLHAFSTRVVTINRVMGYLSSA
Interleukin-12 subunit beta: MWELEKDVYVVEVDWTPDAPGETVNLTCDTPEEDDITWTSDQRHGVIGSGKTLTITVKEFLDAGQYTCHKGGETLSHSHLLLHKKENGIWSTEILKNFKNKTFLKCEAPNYSGRFTCSWLVQRNMDLKFNIKSSSSSPDSRAVTCGMASLSAEKVTLDQRDYEKYSVSCQEDVTCPTAEETLPIELALEARQQNKYENYSTSFFIRDIIKPDPPKNLQMKPLKNSQVEVSWEYPDSWSTPHSYFSLKFFVRIQRKKEKMKETEEGCNQKGAFLVEKTSTEVQCKGGNVCVQAQDRYYNSSCSKWACVPCRVRS
corneal neovascularity [1]: significantly less corneal neovascularity
growth of tumors ([2]; continuous subcutaneous infusion 1 μg IL-12/day for four weeks): initially suppressed for two weeks followed by slower growth
tumor size at end of observation period ([2]; continuous subcutaneous infusion 1 μg IL-12/day, end of 4-week observation period): significantly smaller size
